In the supplement of paper PMC7125110:
± gives the standard error. For some assays here: Fewer inactive variants are shown than the library holds.

B1: glmS ribozyme (parent)
chain: AUAAAAGCGCCAGAACUACAGAAAUGUAGUUGACGAGGAGGAGGUUUAUCGAAUUUUCGGCGGAUGCCUCCAAA

Assays:
Conditions in all cases: with glucosamine-6-phosphate
glucosamine-6-phosphate [1] = variants of: B1; assay: kcat; higher = faster cleavage; RNA array
How it was run: (§1)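 Barcoded ribozyme variants on sequenced MiSeq chips were transcribed in situ by E. coli RNA polymerase and followed at 37 °C through a hybridised Cy3 probe. Glucosamine-6-phosphate at 40 μM to 10 mM in HEPES/KCl/Mg(OAc)2 buffer was flowed in, and tiles were imaged over ~14 h. Signals were normalised to baseline and to non-cleaving reference variants, and per-tile medians were fit to one- or two-exponential decays to give kobs. Weighted Michaelis–Menten fits across concentrations gave kcat and KM.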

glucosamine-6-phosphate [2] = variants of: B1; assay: self-cleavage kobs at 10000 uM GlcN6P; higher = faster cleavage; RNA array
How it was run: as §1

glucosamine-6-phosphate [3] = variants of: B1; assay: KM; higher = weaker cofactor use; RNA array
How it was run: as §1

glucosamine-6-phosphate [4] = variants of: B1; assay: self-cleavage kobs at 160 uM GlcN6P; higher = faster cleavage; RNA array
How it was run: as §1

glucosamine-6-phosphate [5] = variants of: B1; assay: self-cleavage kobs at 40 uM GlcN6P; higher = faster cleavage; RNA array
How it was run: as §1

glucosamine-6-phosphate [6] = variants of: B1; assay: self-cleavage kobs at 640 uM GlcN6P; higher = faster cleavage; RNA array
How it was run: as §1

glucosamine-6-phosphate [7] = variants of: B1; assay: self-cleavage kobs at 2500 uM GlcN6P; higher = faster cleavage; RNA array
How it was run: as §1

Variant	kcat (glucosamine-6-phosphate [1])	self-cleavage kobs at 10000 uM GlcN6P (glucosamine-6-phosphate [2])	KM (glucosamine-6-phosphate [3])	self-cleavage kobs at 160 uM GlcN6P (glucosamine-6-phosphate [4])	self-cleavage kobs at 40 uM GlcN6P (glucosamine-6-phosphate [5])	self-cleavage kobs at 640 uM GlcN6P (glucosamine-6-phosphate [6])	self-cleavage kobs at 2500 uM GlcN6P (glucosamine-6-phosphate [7])
AUAAAAGCGCCAGAACUACAGAAAUGUAGUUGACGAGGAGGAGGUUUAUAGAAUUUUGGGCGGAUGCCUCCAAA [C50A C58G]	< 1e-05 s⁻¹	< 1e-05 s⁻¹	–	–	–	–	–
AUAAAAGCGCCAGAACUACAGAAAUGUAGUUGACGAGGAGGAGGUUUAUAGAAUUUUCGGCGGAUGUCUCCAAA [C50A C67U]	1.84e-05 ± 4e-06 s⁻¹	–	–	–	–	–	–
AUAAAAGCGCCAGAACUACAGAAAUGUAGUUGACGAGGAGGAGGUUUAUCAAAUUUUCGGCGGAUGGCUCCAAA [G51A C67G]	2e-05 ± 6.5e-06 s⁻¹	–	–	–	–	–	–
AUAAAAGCGCCAGAACUACAGAAAUGUAGUUGACGAGGAGGAGGUUUAUUGAAUUGUCGGCGGAUGCCUCCAAA [C50U U56G]	1.91e-05 ± 1.3e-06 s⁻¹	–	829 ± 360 µM	< 1e-05 s⁻¹	–	–	–
AUAAAAGCGCCAGAACUACAGAAAUGUAGUUGACGAGGAGGAGGUUUAUGGAAUUUUCUGCGGAUGCGUCCAAA [C50G G59U C68G]	8.8e-05 ± 8.6e-06 s⁻¹	7.83e-05 ± 1.5e-05 s⁻¹	–	–	6.82e-05 ± 2.8e-05 s⁻¹	0.000101 ± 3e-05 s⁻¹	0.000102 ± 2.2e-05 s⁻¹
AUAAAAGCGCCAGAACUACAGAAAUGUAGUUGACGAGGAGGAGGUUUAUAGAGUUUUCGGCGGAUGCCUCCAAA [C50A A53G]	2.89e-05 ± 3e-06 s⁻¹	2.62e-05 ± 9.1e-06 s⁻¹	–	–	–	–	3.53e-05 ± 1.5e-05 s⁻¹
AUAAAAGCGCCAGAACUACAGAAAUGUAGUUGACGAGGAGGAGGUUUAUAGAAUUUUCGGCGGAUGCCUACAAA [C50A C70A]	4.02e-05 ± 1.1e-05 s⁻¹	–	–	3.47e-05 ± 1.5e-05 s⁻¹	–	3.8e-05 ± 1.3e-05 s⁻¹	5.27e-05 ± 1e-05 s⁻¹
AUAAAAGCGCCAGAACUACAGAAAUGUAGUUGACGAGGAGGAGGUUUAGCGAGUUUUCGGCGGAUGCCUCCAAA [U49G A53G]	0.00124 ± 0.00011 s⁻¹	0.00116 ± 0.00015 s⁻¹	1440 ± 230 µM	0.000136 ± 2.5e-05 s⁻¹	3.67e-05 ± 1.3e-05 s⁻¹	0.000361 ± 6.3e-05 s⁻¹	0.000714 ± 0.00011 s⁻¹
AUAAAAGCGCCAGAACUACAGAAAUGUAGUUGACGAGGAGGAGGUUUAUGGAAGUUUCGGCGGAUGCCUCCAAA [C50G U54G]	4.74e-05 ± 1.5e-05 s⁻¹	–	–	7.22e-05 ± 1.2e-05 s⁻¹	–	4.18e-05 ± 1.1e-05 s⁻¹	3.85e-05 ± 1.5e-05 s⁻¹
AUAAAAGCGCCAGAACUACAGAAAUGUAGUUGACGAGGAGGAGGUUUAUAGAAUUUUCGGGGGAUGCCUCCAAA [C50A C61G]	2.25e-05 ± 7e-06 s⁻¹	–	–	–	–	–	–
AUAAAAGCGCCAGAACUACAGAAAUGUAGUUGACGAGGAGGAGGUUUAUGGAAUUUUCGGCGGAGGCCUCCAAA [C50G U65G]	5.8e-05 ± 2.4e-05 s⁻¹	–	–	4.97e-05 ± 1.7e-05 s⁻¹	–	–	7.28e-05 ± 2.4e-05 s⁻¹
AUAAAAGCGCCAGAACUACAGAAAUGUAGUUGACGAGGAGGAGGUUUAUUGACGUUUCGGCGGAUGCCUCCAAA [C50U A53C U54G]	1.06e-05 ± 9.8e-07 s⁻¹	< 1e-05 s⁻¹	–	–	–	–	–
AUAAAAGCGCCAGAACUACAGAAAUGUAGUUGACGAGGAGGAGGUUUAUGGAAUUUACGGCGGAUGCCUCCAAA [C50G U57A]	7.3e-05 ± 1.7e-05 s⁻¹	–	–	8.31e-05 ± 1.4e-05 s⁻¹	3.58e-05 ± 1.6e-05 s⁻¹	5.84e-05 ± 1.6e-05 s⁻¹	6.05e-05 ± 2.7e-05 s⁻¹
AUAAAAGCGCCAGAACUACAGAAAUGUAGUUGACGAGGAGGAGGUUUAUGAAAUUUUCUGCGGAUGCCUGCAAA [C50G G51A G59U C70G]	0.000102 ± 2.5e-05 s⁻¹	–	–	9.16e-05 ± 3.2e-05 s⁻¹	–	0.000132 ± 2.9e-05 s⁻¹	7.99e-05 ± 2e-05 s⁻¹
AUAAAAGCGCCAGAACUACAGAAAUGUAGUUGACGAGGAGGAGGUUUUUCGAAUUUGCGGCGGAUGCCUCCAAA [A48U U57G]	< 1e-05 s⁻¹	< 1e-05 s⁻¹	–	< 1e-05 s⁻¹	< 1e-05 s⁻¹	–	–
AUAAAAGCGCCAGAACUACAGAAAUGUAGUUGACGAGGAGGAGGUUUUUCGAAUUUUCGGCGGAUGCCCCCAAA [A48U U69C]	0.000248 ± 8.5e-06 s⁻¹	0.000215 ± 2.7e-05 s⁻¹	1640 ± 120 µM	–	–	7.15e-05 ± 1e-05 s⁻¹	0.000147 ± 1.8e-05 s⁻¹
AUAAAAGCGCCAGAACUACAGAAAUGUAGUUGACGAGGAGGAGGUUUACCGAUUUUUCGGCGGAUGCCUCCAAA [U49C A53U]	< 1e-05 s⁻¹	–	–	–	–	–	–
AUAAAAGCGCCAGAACUACAGAAAUGUAGUUGACGAGGAGGAGGUUUAUAGAAUUUUCGGUGGAUGCCUUCAAA [C50A C61U C70U]	3.88e-05 ± 1.2e-05 s⁻¹	–	–	–	–	–	–
AUAAAAGCGCCAGAACUACAGAAAUGUAGUUGACGAGGAGGAGGUUUAUGGAAUUUUCGGCGGAUGCCUCGAAA [C50G C71G]	0.000204 ± 3.9e-05 s⁻¹	–	–	0.000249 ± 4.4e-05 s⁻¹	0.000109 ± 9.6e-06 s⁻¹	0.000149 ± 2.4e-05 s⁻¹	0.000242 ± 3.1e-05 s⁻¹
AUAAAAGCGCCAGAACUACAGAAAUGUAGUUGACGAGGAGGAGGUUUACCGAAUUUUCGGCGGAUGCCGCCAAA [U49C U69G]	1.6e-05 ± 5e-06 s⁻¹	–	–	–	–	–	–
AUAAAAGCGCCAGAACUACAGAAAUGUAGUUGACGAGGAGGAGGUUUUUCGAAUGUUCGGCGGAUGCCUCCAAA [A48U U55G]	0.000482 ± 2.4e-05 s⁻¹	0.000359 ± 4.8e-05 s⁻¹	3300 ± 360 µM	–	–	7.42e-05 ± 2.3e-05 s⁻¹	0.000226 ± 5.6e-05 s⁻¹
AUAAAAGCGCCAGAACUACAGAAAUGUAGUUGACGAGGAGGAGGUUUAUUGAAUUUCCGGCGGAUGCCUCCAAA [C50U U57C]	< 1e-05 s⁻¹	–	–	< 1e-05 s⁻¹	< 1e-05 s⁻¹	–	–
AUAAAAGCGCCAGAACUACAGAAAUGUAGUUGACGAGGAGGAGGUUUAUGGAAUUCUCGGCGGAUGCCUCCAAA [C50G U56C]	1.76e-05 ± 2.6e-06 s⁻¹	–	–	–	–	–	–
AUAAAAGCGCCAGAACUACAGAAAUGUAGUUGACGAGGAGGAGGUUUAGCGAAUUUUAGGCGGAUGCCUCCAAA [U49G C58A]	3.25e-05 ± 8.4e-06 s⁻¹	–	6150 ± 2700 µM	–	< 1e-05 s⁻¹	–	–
